Laboratory results from the DeepSol protein solubility set.

assay: soluble on expression in E. coli; label from the status in PepcDB or PDB records

For “MGSDKIHHHHHHMTNLTSTHEVLAIGRLGVDIYPLQSGVGLADVQSFGKYLGGSAANVSVAAARHGHNSALLSRVGNDPFGEYLLAELERLGVDNQYVATDQTFKTPVTFCEIFPPDDFPLYFYREPKAPDLNIESADVSLDDVREADILWFTLTGFSEEPSRGTHREILTTRANRRHTIFDLDYRPMFWESPEEATKQAEWALQHSTVAVGNKEECEIAVGETEPERAGRALLERGVELAIVKQGPKGVMAMTKDETVEVPPFFVDVINGLGAGDAFGGALCHGLLSEWPLEKVLRFANTAGALVASRLECSTAMPTTDEVEASLNQKV”, which “soluble on expression in E. coli” value is on record?
Its value is “not soluble”.

With “ANGFHYTVGFNLSDYQSEVTKFDNESKELGNWYVGQKQGEIWGYETYGLFQSEQEIAGAANQDKVSGGIKLMPGDIRFVDRNNDGVIDWGDNTVDNPGDKKIIGNSTPRYHYGINLGADWKGFDLGIFFQGVGKRDLYLPGTSFRSHYGSEWQVPSAYNNDYWTEENTGAYFPRARFNGGSAINQAQTRYMVDASYCRLKSLSIGYTLPKVLTQKASIEKIRIYFTGENLFTISDTPDGLDPELDNPYTYPMQRSLSVGLSLTF” as the sequence, how does the “soluble on expression in E. coli” value read?
The value was “not soluble”.

Which “soluble on expression in E. coli” value does the source give for “MRKEAIYHRPADNFAYAYDSETLHLRLRTKKDDIDRVELLHGDPYDWQNGAWQFQMMPMRKTGSDELFDYWFAEVKPPYRRLRYGFVLYSGEEKLVYTEKGFYFEVPTDDTAYYFCFPFLHRVDLFEAPDWVKDTVWYQIFPERFANGNPSISPEGSRPWGSEDPTPTSFFGGDLQGIIDHLDYLVDLGITGIYLTPIFRSPSNHKYDTADYFEVDPHFGDKETLKTLIDRCHEKGIRVMLDAVFNHCGYEFAPFQDVWKNGESSKYKDWFHIHEFPLQTEPRPNYDTFAFVPQMPKLNTANPEVKRYLLDVATYWIREFDIDGWRLDVANEIDHEFWREFRQEVKALKPDVYILGQIWHDAMPWLRGDQFDAVMNYPFTDGVLRFFAKEEISARQFANQMMHVLHSYPNNVNEAAFNLLGSHDTSRILTVCGGDIRKVKLLFLFQLTFTGSPCIYYGDEIGMTGGNDPECRKCMVWDPMQQNKELHQHVKQLIALRKQYRSLRRGEISFLHADDEMNYLIYKKTDGDETVLVIINRSDQKADIPIPLDARGTWLVNLLTGERFAAEAETLCTSLPPYGFVLYAIEHW” here?
The value was “soluble”.

With “MSLIDRTHELPLTQQCRILRLARSSMYYTPREVSAHDLALMRRMDELHLEHPFAGARMLRDLLRAEGHAIGRKHVGTLMRRMGIEALYRKPNTSRRRRGDEIYPYLLRDLKIERPNQAWAADITYIPMRKGFVYLFAIIDWSSRRVLAWRLSNTLTTDFCLDAVREALHRYGRPEIFNTDQGCQFTSTDFTDLLKDNGIQISMDGKGCWRDNVFVERLWKSVKYEEVYLKAYDSVAEAKAHLGAYLRFYNERRPHRAHDGRTPDQAYFGALRDETPLAAEGHHHHHH” as the sequence, how does the “soluble on expression in E. coli” value read?
Its value is “not soluble”.

For “MGSDKIHHHHHHMSSVHAINQSYWFSTQLPHVESRTTRNSSHAYKTHSHAQFSIGAIEHGETLCHYRNETHHLQAGDLIFIDPQQPHSCNPPPGKMRSYHMLYLDTAWCLDQIAVHCNYQADSLRCNRVVLRDPTLFIRYQHLITLLHRGEITSADSLLNAMLTPVWQQYCLPEPALPHQALQTTTRHVRERLLNNLQESPSLETLADELNLRRETIVRQFRHDTGITPMAFLNNARIEYAKSLLKQGTPLVDTSYQSGFCDQSHFHKTFVQYTSATPGQYARSIFDNK”, which “soluble on expression in E. coli” value is on record?
The value was “not soluble”.

Which “soluble on expression in E. coli” value does the source give for “MFSGFSSFGGGNGFVNMPQTFEEFFRCYPIAMMNDRIRKDDANFGGKIFLPPSALSKLSMLNIRYPMLFKLTANETGRVTHGGVLEFIAEEGRVYLPQWMMETLGIQPGSLLQISSTDVPLGQFVKLEPQSVDFLDISDPKAVLENVLRNFSTLTVDDVIEISYNGKTFKIKILEVKPESSSKSICVIETDLVTDFAPPVGYVEPDYKALKAQQDKEKKNSFGKGQVLDPSVLGQGSMSTRIDYAGIANSSRNKLSKFVGQGQNISGKAPKAEPKQDIKDMKITFDGEPAKLDLPEGQLFFGFPMVLPKEDEESAAGSKSSEQNFQGQGISLRKSNKRKTKSDHDSSKSKAPKSPEVIEID” here?
Its value is “soluble”.

Which “soluble on expression in E. coli” value does the source give for “MLLMEKILYQTDEFKLKPSGWYKTIPPKKDGGTEFEIMLSGPIAFTDRFIDPATRKEKVFLSDLNNIELVEKASILTALQLPSLIEYGFTINEKHIRDLGFVLQQMRSTTPLSTIYSGVGMLHTLLGPLISLDQPYFSNEITNSTSIICDNKYDLIPKGNLSEWLQMYKEEVHGNLSLELDVLFGVSSLVTAFLKYHNNVEFSGTIFSFTGQSSTGKSTAAMLAASVAGNPTKGTENLFRSWNATRNALEGYLSGNYGVPIVLDELSAATFHDTTGLLYSFAEGQGRQRANINGDVKTPKNLEHHHHHH” here?
Its value is “not soluble”.

Which “soluble on expression in E. coli” value does the source give for “MGLLIEGRWHDQWYESGKDGAFQREQAQRRNWVTADGRPGPSGEGGFAAEAGRYHLYVSLACPWAHRTLILRKLKGLEQLIDVSVVSWLMRENGWTFDSAHGSSGDALDHFDFMHQRYTADTADYTGRVTVPVLWDKQQQRIVSNESAEIIRMFNSAFDGLTGNGLDFYPQPLRARIDELNARIYPALNNGVYRAGFATSQQAYETAFDDVFAELDALEALLDKQRYLAGEYLTEADVRLFTTLIRFDAVYHGHFKCNLRRIADYPNLSNWLRELYQWPGIAETVDFAHIKGHYYASHTTINPTGIVPKGPLQDFSRAHDRQRLSGQGVWCRGLEHHHHHH” here?
The value was “not soluble”.

With “MSLTFEEKLSQMYNEIANEISGMIPVEWEKVYTIAYVDDEGGEVVFNYTKPGSEDLNYYSDIPKDCNVSKDIFKNSWFKVYRMFDELRETFKKEDLEPWTSCEFDFTRKGNLKVSFDYIDWIKLGFGPSGKENYYMYKKFGILPDMEYEMEEIRAVEKYVKEEGHHHHHH” as the sequence, how does the “soluble on expression in E. coli” value read?
The value was “soluble”.

Which “soluble on expression in E. coli” value does the source give for “RTEDLPKAVVFLEPQWYSVLEKDSVTLKCQGAYSPEDNSTQWFHNESLISSQASSYFIDAATVNDSGEYRCQTNLSTLSDPVQLEVHIGWLLLQAPRWVFKEEDPIHLRCHSWKNTALHKVTYLQNGKDRKYFHHNSDFHIPKATLKDSGSYFCRGLVGSKNVSSETVNITITQGL” here?
The value was “soluble”.

For “GPGSMDQDLSVCEQEYRKLLDPEEPLFSRTRELYRLKESILRTPAGVHVLAKAVDTTNSVLLQHELVYNLGQSAMVEACPHLERFIRAVGKYDIVTRHEAVEALGAIGDPACIPLLRHFMEPANEPEAAIRESCELALKRIEMLEEKGKEAVGPAANCPFVSIDPAPAFNGTNTGGSAPYTVSELENLLCDTTGAVSLWLRYQAMFTLRNIGTPEAVAALSRALRQDNTSALLRHEVAFVLGQLEHPASQPALLDALRDEHEAPMVRHEAAEALGAIADPKTLPALEEYAKHKEAIVRDSCVVALEMHKYWSQFNNQRIQH”, which “soluble on expression in E. coli” value is on record?
Its value is “soluble”.

For “MGHHHHHHGGHMSLTVPDFQAFMRPMLEQISSGEPQKIAELYRRLAEFFALTPQDTEELLPSGKQAKYHNRILWAKFHLDRAGVLTTPSRGVVQITPLGREFLSRYPEHIGMRELQTIPAYAEFTRRSRSPAQSPAPAAPPQAECSASVPPAEQIDALYAELTANLAEELLAQVKELSPAQFERLVVEVLVAMGYGGSVRDAGQALGRSGDNGIDGLIKQDPLGLDRIYLQAKRWKNTVHSPEIRTFSGSLTYHKATKGVFITTSGFSDGAKATAGQIGNIILLDGETLAHLMIEYGVGVLTRETYQIRRLDADYFEELEGGS”, which “soluble on expression in E. coli” value is on record?
Its value is “soluble”.

For “GPGSMLRLGQPTLTAMRCVPAASASATAVAPTTSYPSTSAALLANTRAIHGEVRHQNTDYDNTRIPWDFTTSSYEKIHNEILPKFPRGRRISATIPLLHLAQQQQGGYIPVTAMYKIAKICEVPPMHVFETVTFYSMFNRHPVGKYHIQFCRTTPCMLCGADELMERTMHYLNVRMHGTTSDGLITIGEMECLGACVNAPMLVVSDYSNPPNFSYDYMEDLTWESIKTLVENLRGGKPFKIGSQRLDRRYAEPAGGRTSLLFKEPPGPYCRDFDAEPDKKADAASPKK”, which “soluble on expression in E. coli” value is on record?
Its value is “not soluble”.

Which “soluble on expression in E. coli” value does the source give for “MGSDKIHHHHHHMAVELRYDEEAVFLRRVNRFVVEVKSSRGVVRCHLMDTGRIDHLASPGRRGVLIAWLNRLGGKTVCRAQAFKTAGGVVAVVDSRVPNRLFAEAAPMVVGGDASIEAEREVFGSRLDFLISTGRGLWAVEVKGVNLSLDGVGLFPNAPSARAVKHLEVLARLAREGVKPLMAFVALRPDIRVFAPNYRVDRRFASLACTLLRRGLVGMVGIRVSIDLEPGVVRIRPVATAPVQCPPLQPGR” here?
Its value is “not soluble”.

For “REPLSFSLFSQPECVEQPERLAQVFALLVNAHYQTSPNDLFALLQDEAMTLFVAYQGEVCVGCVLAVREGELDAPTIEAIQLGTRRPKGHLTPVTLANQLGISQAARQSCWRILRIAVHPDCQRQGIGSQLLTHFIAQHHADYYATSFGVSEDLLPFWLANHFVPIKLGSHRDQASGCYSLLMVRG”, which “soluble on expression in E. coli” value is on record?
Its value is “not soluble”.

With “MHPDQKKTFKEKNDIRKKLFNSTKEERLDWRKMKDEKKRKNEEKIIKEAEEAKKAKIEKVDHTPPFTISIAVPGQFLNNAQSAELRTYMAGQIARAATLYRVDEIIIYDESCRMTDEAVNAYYNGTWQGNLIPAETNYEGCFYLAKILEYLECPQYLRKDLFPIQKPLKNAGLLNPLDAQHHLKYDEKTLRFREGVVLKKRSKDGRGPICNIGLEKEFEIDSDAVQLPPYTRVTVEIKNLTEQCKLYRGSITSGATVTRETGLYWGYSVRLMTGLQKVLQAKKFDIVAGVSPRGKLASQMDVCILNKPKILLVFGGVAGVDAAVESEELAEWRRAEDAFDVLIRTTSLSNGSRSERVEENVLSVLAQVQCHLETLNAL” as the sequence, how does the “soluble on expression in E. coli” value read?
The value was “not soluble”.

With “MDEQISKSQKKRDAHYLQDIGIKFIDLSASKLDSLPLPDNLRQAIVDARSIKSHGAKRRQAQLIGKLMRAADFEAILAAYEKILEEESSVTASFHEIELWRDRLLQDGKDALTEFIDAYQPEDVQQLRQLIKKALDDQMKEKNTGAAKALFRYLRSLIK” as the sequence, how does the “soluble on expression in E. coli” value read?
The value was “not soluble”.

For “MHFYKYGVLINQLSDSFEWRVAFLDGSVSDHCCITVPSEKFNFPPTPGATVKAKFEHANSFLPSLVAQCGSFEWFRDVTVVNSKVVIFAIVHFSNECLERDPFKINGMDYSIIENENTDFQKIVLPTRVLQTSITSRSNLQNTDTPFIYRIGVCWEPISFENGVTVNWRYYADFPITPIFELYYRETTLPYIAESMVYGVLEGVVIAENDHGALFWTPKMGCAILPSTSLDTPMPSLGSVHVILVKRCIPENSFGFSCSYELLSSFRSTEWPNLKVITDQITRKVYIEANASCRSMMENQDFPSMNVPHIGKVFRGLQQYRDKLSAGHLYDFRMEFQKEEGSFVPTIVDLCLEEDEMVDCRVVYISNETSTYFAVLDPSSNSFDRFKQSIDYIAIPFRVLFCANGVHVKNEELLLNSYKVRVRVPRNRHDVVNAIHVEHVIQSPKDPAYFITNGSVWLRTTVKFQNASRYELLCPLLEQKIIDVNGVTAAMSLTQEFTVHAQFVLMERNVPVFVVRQLASTVREHPRTTNYPSRSLNLSYEVSGALARTNPNGQLSAADNNIVLINDSISLDHNLPDTGEYPTILNESSFERQLLFDNQSIADSASTSGDFILTESVYESSSAASTCTVIDRNDARFSALNDDSNILISESWLDSTNQHSETTMDTPEIITESFYESTHDQASSRASTVDRLASDVDKISIGRPDYSPPPRRRIFGYSTPGDRVRPRNSYGSSSSGSLNGRPKRRAPYGFRQIRNITPHNVLLRDIIYNNINNRKMFVEQNKNAILKCWNRLPLAQVTRTTKLSVTVIAVESIKFPPSFDETCIKGLVRFVALGVGVDINLRNMSIVVPIGGKFNNLPKSFQLGETYRVYHFSSKVDRICRLGGFSFGLKGGMRNEEPPDRNNWFSDPQTVNGRDGQSYLRCTVNAERPANAEIESDFFELWSTTALPGFIIVEKVPQLMKHLNEELLDPDVHSRFTYSCVIEPLAGGPVEASILKDLKYDEEFCIFWRLVVEFSDTVPLPRLIIKSKIYVPPPPVVPVYVTPFTVNDFGCWETHRINSILHQARIDRLRAAGHMRVKMLDGPDMKPEIEIRKVDVNTRREKMFTAFDALLEKLPQLHSEGILEYVLEDDLREKIEYLLPMTDDNHKFQFRARNDSLTIGLNYLTDMLTKGKVYKMLYEKQEYVPLLKVLSDCIGLNTTYIKKTDAVTMMLQFMYRNELHTYM”, which “soluble on expression in E. coli” value is on record?
The value was “not soluble”.
